# T1: r GALR3 (Rattus norvegicus, UniProt O88626)
# T1 sequence (O88626 1-370): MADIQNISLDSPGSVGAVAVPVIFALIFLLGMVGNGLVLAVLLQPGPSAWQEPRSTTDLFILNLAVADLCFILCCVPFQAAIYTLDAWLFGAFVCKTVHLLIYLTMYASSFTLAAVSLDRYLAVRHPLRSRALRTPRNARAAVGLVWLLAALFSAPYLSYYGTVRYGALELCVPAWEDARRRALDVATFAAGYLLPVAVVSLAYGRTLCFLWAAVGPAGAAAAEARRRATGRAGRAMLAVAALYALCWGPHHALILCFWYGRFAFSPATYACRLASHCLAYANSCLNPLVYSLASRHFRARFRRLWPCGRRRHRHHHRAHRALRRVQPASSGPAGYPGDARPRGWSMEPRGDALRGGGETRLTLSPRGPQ
# Assays:
# Assay in all cases: Calcium mobilization (FLIPR, Fluo-3) in transfected COS-7 cells
# Format in all cases: cell-based
# r GALR3 = biological target: T1, r GALR3; conditions: COS-7 cells transfected with the rat GALR3 receptor; n=4
# Method: (§1) COS-7 cells were cultured in 225 cm^2 flasks in Dulbecco's Modified Eagle Medium (DMEM) with supplements (10% bovine calf serum, 4 mM glutamine, 100 units/ml penicillin and 100 μg/ml streptomycin) at 37° C., 5% CO2. Stock plates of COS-7 cells were trypsinized and split 1:6 every 3–4 days.
# (§2) GPCR and chimeric G protein cDNAs were transiently transfected into COS-7 cells in 150 cm^2 flasks by the DEAE-dextran method (Cullen, 1987), using a total of 20 μg of DNA/˜7×10^6 cells. For evaluating the function of a single chimeric G protein, the standard cDNA transfection ratio was 1:1 (10 μg GPCR cDNA and 10 μg chimeric G protein cDNA). For evaluating the function of a mixture of chimeric G proteins, the standard cDNA transfection ratio was 8:1:1 (16 μg GPCR cDNA, 2 μg Gαq/z cDNA, 2 μg Gαq/s cDNA).
# (§3) Twenty four hours after transient transfection, COS-7 cells were seeded into 96-well black wall microtiter plates coated with poly-D-lysine for assay the following day. Just prior to assay, culture medium was aspirated and cells were dye-loaded with 4 μM Fluo-3/0.01% pluronic acid in assay buffer composed of Hank's Balanced Salt Solution (138 mM NaCl, 5 mM KCl, 1.3 mM CaCl2, 0.5 mM MgCl2, 0.4 mM MgSO4, 0.3 mM KH2PO4, 0.3 mM Na2HPO4, 5.6 mM glucose) plus 20 mM HEPES (pH 7.4), 0.1% BSA and 2.5 mM probenicid (100 μl/well) for 1 hour in 5% CO2 at 37° C. After excess dye was discarded, cells were washed in assay buffer and layered with a final volume equal to 100 μl/well. Basal fluorescence was monitored in a fluorometric imaging plate reader (FLIPR™, Molecular Devices) with an excitation wavelength of 488 nm and an emission range of 500 to 560 nm. Laser excitation energy was adjusted so that basal fluorescence readings were approximately 10,000 relative fluorescent units. Cells were stimulated with agonists diluted in assay buffer (50 μl), and relative fluorescent units were measured at defined intervals (exposure=0.4 sec) over a 3 min period at room temperature. Maximum change in fluorescence was calculated for each well. Concentration-response curves derived from the maximum change in fluorescence were analyzed by nonlinear regression (Hill equation).
# h D1 = biological target: T2, h D1 (Homo sapiens, UniProt P21728)
# T2 construct: expressed in transfected cells; host or cells: COS-7
# T2 sequence (P21728 whole entry): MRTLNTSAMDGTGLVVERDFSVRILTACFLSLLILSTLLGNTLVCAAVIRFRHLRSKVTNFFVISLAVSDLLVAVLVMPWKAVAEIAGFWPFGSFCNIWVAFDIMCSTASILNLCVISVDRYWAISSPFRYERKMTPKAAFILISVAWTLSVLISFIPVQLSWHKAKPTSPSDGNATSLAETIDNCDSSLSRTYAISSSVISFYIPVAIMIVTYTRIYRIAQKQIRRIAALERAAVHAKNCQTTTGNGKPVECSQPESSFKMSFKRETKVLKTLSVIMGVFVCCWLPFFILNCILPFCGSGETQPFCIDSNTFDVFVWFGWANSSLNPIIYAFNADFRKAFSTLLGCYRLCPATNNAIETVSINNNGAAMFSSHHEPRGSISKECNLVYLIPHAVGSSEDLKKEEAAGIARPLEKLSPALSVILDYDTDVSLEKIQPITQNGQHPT
# Method: as §1
# For evaluating the function of a single chimeric G protein, the standard cDNA transfection ratio was 1:1 (10 μg GPCR cDNA and 10 μg chimeric G protein cDNA). For evaluating the function of a mixture of chimeric G proteins, the standard cDNA transfection ratio was 8:1:1 (16 μg GPCR cDNA, 2 μg Gαq/z cDNA, 2 μg Gαq/s cDNA).
# as §3, with “Just prior to assay, culture medium was aspirated and cells were dye-loaded with 4 μM Fluo-3/0.01% pluronic acid in assay buffer composed of Hank's Balanced Salt Solution (138 mM NaCl, 5 mM KCl, 1.3 mM CaCl2, 0.5 mM MgCl2, 0.4 mM MgSO4, 0.3 mM KH2PO4, 0.3 mM Na2HPO4, 5.6 mM glucose) plus 20 mM HEPES (pH 7.4), 0.1% BSA and 2.5 mM probenicid (100 μl/well) for 1 hour in 5% CO2 at 37° C.” left out
# h GLP-1 = h GLP-1 (Homo sapiens, UniProt P43220); conditions: h GLP-1 + chimera in COS-7; agonist GLP-1, max 10 μM
# Sequence of h GLP-1 (P43220 24-463): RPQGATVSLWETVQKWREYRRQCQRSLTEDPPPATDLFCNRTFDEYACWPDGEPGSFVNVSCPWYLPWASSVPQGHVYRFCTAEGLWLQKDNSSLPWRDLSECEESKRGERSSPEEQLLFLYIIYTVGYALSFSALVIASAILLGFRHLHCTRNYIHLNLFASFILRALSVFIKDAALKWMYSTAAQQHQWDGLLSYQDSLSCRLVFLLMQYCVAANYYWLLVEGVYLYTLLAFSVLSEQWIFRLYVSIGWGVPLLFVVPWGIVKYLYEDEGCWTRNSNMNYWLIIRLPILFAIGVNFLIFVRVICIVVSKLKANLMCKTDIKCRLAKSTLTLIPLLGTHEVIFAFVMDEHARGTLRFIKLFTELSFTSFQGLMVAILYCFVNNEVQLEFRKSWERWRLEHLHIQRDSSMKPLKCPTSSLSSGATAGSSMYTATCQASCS
# Method: as §1, §2, §3
# h 5HT7 = h 5HT7 (Homo sapiens, UniProt P34969); conditions: h 5HT7 + chimera in COS-7; agonist 5HT, max 100 μM
# Sequence of h 5HT7 (P34969 whole entry): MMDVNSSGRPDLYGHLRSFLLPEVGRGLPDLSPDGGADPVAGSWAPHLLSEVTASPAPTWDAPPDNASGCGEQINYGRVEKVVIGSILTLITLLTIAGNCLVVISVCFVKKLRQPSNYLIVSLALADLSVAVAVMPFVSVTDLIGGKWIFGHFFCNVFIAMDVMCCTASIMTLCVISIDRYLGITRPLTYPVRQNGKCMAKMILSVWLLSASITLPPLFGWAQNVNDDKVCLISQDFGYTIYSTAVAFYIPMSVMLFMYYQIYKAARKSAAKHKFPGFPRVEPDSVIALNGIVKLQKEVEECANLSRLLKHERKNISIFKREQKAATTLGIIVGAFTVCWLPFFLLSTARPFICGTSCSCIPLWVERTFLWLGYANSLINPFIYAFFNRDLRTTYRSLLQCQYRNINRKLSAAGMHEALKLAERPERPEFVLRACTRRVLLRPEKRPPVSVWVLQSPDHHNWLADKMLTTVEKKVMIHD
# Method: as §1, §2, §3
# h 5HT4 = h 5HT4 (Homo sapiens, UniProt Q13639); conditions: h 5HT4 + chimera in COS-7; agonist 5HT, max 100 μM
# Sequence of h 5HT4 (Q13639 whole entry): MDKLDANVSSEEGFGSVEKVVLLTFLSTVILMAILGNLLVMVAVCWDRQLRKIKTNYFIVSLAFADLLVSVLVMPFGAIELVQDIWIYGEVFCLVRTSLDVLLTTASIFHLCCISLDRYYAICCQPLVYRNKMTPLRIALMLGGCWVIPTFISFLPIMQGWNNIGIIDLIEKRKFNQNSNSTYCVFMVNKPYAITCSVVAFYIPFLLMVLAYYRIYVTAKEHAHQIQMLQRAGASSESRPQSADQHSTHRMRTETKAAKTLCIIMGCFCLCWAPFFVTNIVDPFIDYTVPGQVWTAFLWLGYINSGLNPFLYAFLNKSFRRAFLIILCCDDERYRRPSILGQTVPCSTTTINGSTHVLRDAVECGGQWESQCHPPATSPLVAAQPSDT
# Method: as §1, §2, §3
# h D5 = h D5 (Homo sapiens, UniProt P21918); conditions: h D5 + chimera in COS-7; agonist DA, max 100 μM
# Sequence of h D5 (P21918 whole entry): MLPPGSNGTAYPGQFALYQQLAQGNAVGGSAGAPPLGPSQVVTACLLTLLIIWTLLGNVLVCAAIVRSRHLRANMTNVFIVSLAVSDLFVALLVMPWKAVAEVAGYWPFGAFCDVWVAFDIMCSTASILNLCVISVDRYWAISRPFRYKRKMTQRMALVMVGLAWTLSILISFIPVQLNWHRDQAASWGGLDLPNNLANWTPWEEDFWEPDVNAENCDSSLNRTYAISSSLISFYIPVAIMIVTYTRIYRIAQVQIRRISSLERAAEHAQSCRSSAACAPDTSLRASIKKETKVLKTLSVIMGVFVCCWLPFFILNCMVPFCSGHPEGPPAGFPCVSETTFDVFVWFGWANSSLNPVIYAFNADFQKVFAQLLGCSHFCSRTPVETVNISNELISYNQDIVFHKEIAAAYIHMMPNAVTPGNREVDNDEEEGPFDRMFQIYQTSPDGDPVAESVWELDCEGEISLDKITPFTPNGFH
# Method: as §1, §2, §3
# h β2 adr = h β2 adr (Homo sapiens, UniProt P07550); conditions: h β2 adr + chimera in COS-7; agonist NE, max 100 μM
# Method: as §1, §2, §3
# h 5HT6 = h 5HT6 (Homo sapiens, UniProt P50406); conditions: h 5HT6 + chimera in COS-7; agonist 5HT, max 100 μM
# Sequence of h 5HT6 (P50406 whole entry): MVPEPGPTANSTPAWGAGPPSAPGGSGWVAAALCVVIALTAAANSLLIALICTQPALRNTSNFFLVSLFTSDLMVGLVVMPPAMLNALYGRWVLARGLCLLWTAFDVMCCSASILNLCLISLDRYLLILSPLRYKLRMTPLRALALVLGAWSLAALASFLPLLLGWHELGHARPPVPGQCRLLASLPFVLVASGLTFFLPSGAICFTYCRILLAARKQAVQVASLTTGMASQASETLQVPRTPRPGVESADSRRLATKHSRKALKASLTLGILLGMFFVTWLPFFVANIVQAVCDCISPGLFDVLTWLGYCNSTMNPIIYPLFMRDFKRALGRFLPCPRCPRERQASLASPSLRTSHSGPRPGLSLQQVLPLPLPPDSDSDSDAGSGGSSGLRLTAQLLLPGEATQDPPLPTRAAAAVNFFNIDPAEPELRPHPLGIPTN
# Method: as §1, §2, §3
# [1] = h D1 + chimera in COS-7, agonist DA, max 100 μM
Molecule,maximum signal produced by porcine galanin (r GALR3),MAXIMAL SIGNAL (FLUORESCENCE UNITS) (h D1; [1]) [fluorescence units],MAXIMAL SIGNAL (FLUORESCENCE UNITS) (h GLP-1) [fluorescence units],MAXIMAL SIGNAL (FLUORESCENCE UNITS) (h 5HT7) [fluorescence units],MAXIMAL SIGNAL (FLUORESCENCE UNITS) (h 5HT4) [fluorescence units],MAXIMAL SIGNAL (FLUORESCENCE UNITS) (h D5) [fluorescence units],MAXIMAL SIGNAL (FLUORESCENCE UNITS) (h β2 adr) [fluorescence units],MAXIMAL SIGNAL (FLUORESCENCE UNITS) (h 5HT6) [fluorescence units],"MAXIMAL SIGNAL (FLUORESCENCE UNITS) (h D1; human D1 receptors in COS-7, 10 μg chimera cDNA and 10 μg receptor cDNA, 100 μM dopamine, Table 9 parallel comparison, mean of two experiments) [fluorescence units]"
"C. elegans Gαq/i3(5): C. elegans Gαq with five C-terminal amino acids of Gαi3 (SEQ ID NO: 5) (protein, C. elegans) MACCLSEEAREQKRINQEIEKQLQRDKRNARRELKLLLLGTGESGKSTFIKQMRIIHGQGYSEEDKRAHIRLVYQNVFMAIQSMIRAMDTLDIKFGNESEELQEKAAVVREVDFESVTSFEEPYVSYIKELWEDSGIQECYDRRREYQLTDSAKYYLSDLRRLAVPDYLPTEQDILRVRVPTTGIIEYPFDLEQIIFRMVDVGGQRSERRKWIHCFENVTSIMFLVALSEYDQVLVECDNENRMEESKALFRTIITYPWFTNSSVILFLNKKDLLEEKILYSHLADYFPEYDGPPRDPIAAREFILKMFVDLNPDADKIIYSHFTCATDTENIRFVFAAVKDTILQHNLKECGLY",2564 relative fluorescent units,–,–,–,–,–,–,–,–
hGαq/s9: human Gαq with 9 C-terminal amino acids of Gαs (protein) MTLESIMACCLSEEAKEARRINDEIERQLRRDKRDARRELKLLLLGTGESGKSTFIKQMRIIHGSGYSDEDKRGFTKLVYQNIFTAMQAMIRAMDTLKIPYKYEHNKAHAQLVREVDVEKVSAFENPYVDAIKSLWNDPGIQECYDRRREYQLSDSTKYYLNDLDRVADPSYLPTQQDVLRVRVPTTGIIEYPFDLQSVIFRMVDVGGQRSERRKWIHCFENVTSIMFLVALSEYDQVLVESDNENRMEESKALFRTIITYPWFQNSSVILFLNKKDLLEEKIMYSHLVDYFPEYDGPQRDAQAAREFILKMFVDLNPDSDKIIYSHFTCATDTENIRFVFAAVKDTILQMHLRQYELL,–,5692,4198,0,2309,745,1439,999,–
hGαq/s5: human Gαq with 5 C-terminal amino acids of Gαs (protein) MTLESIMACCLSEEAKEARRINDEIERQLRRDKRDARRELKLLLLGTGESGKSTFIKQMRIIHGSGYSDEDKRGFTKLVYQNIFTAMQAMIRAMDTLKIPYKYEHNKAHAQLVREVDVEKVSAFENPYVDAIKSLWNDPGIQECYDRRREYQLSDSTKYYLNDLDRVADPSYLPTQQDVLRVRVPTTGIIEYPFDLQSVIFRMVDVGGQRSERRKWIHCFENVTSIMFLVALSEYDQVLVESDNENRMEESKALFRTIITYPWFQNSSVILFLNKKDLLEEKIMYSHLVDYFPEYDGPQRDAQAAREFILKMFVDLNPDSDKIIYSHFTCATDTENIRFVFAAVKDTILQLNLKQYELL,–,–,189,0,1709,0,43,98,–
human Gαq/i3(5): human Gαq with five C-terminal amino acids of Gαi3 (protein) MTLESIMACCLSEEAKEARRINDEIERQLRRDKRDARRELKLLLLGTGESGKSTFIKQMRIIHGSGYSDEDKRGFTKLVYQNIFTAMQAMIRAMDTLKIPYKYEHNKAHAQLVREVDVEKVSAFENPYVDAIKSLWNDPGIQECYDRRREYQLSDSTKYYLNDLDRVADPSYLPTQQDVLRVRVPTTGIIEYPFDLQSVIFRMVDVGGQRSERRKWIHCFENVTSIMFLVALSEYDQVLVESDNENRMEESKALFRTIITYPWFQNSSVILFLNKKDLLEEKIMYSHLVDYFPEYDGPQRDAQAAREFILKMFVDLNPDSDKIIYSHFTCATDTENIRFVFAAVKDTILQLNLKECGLY,2084 relative fluorescent units,–,–,–,–,–,–,–,–
"cGαq/s21: C. elegans Gαq with C-terminal Gαs tail of 21 amino acids (SEQ ID NO: 4) (protein, C. elegans) MACCLSEEAREQKRINQEIEKQLQRDKRNARRELKLLLLGTGESGKSTFIKQMRIIHGQGYSEEDKRAHIRLVYQNVFMAIQSMIRAMDTLDIKFGNESEELQEKAAVVREVDFESVTSFEEPYVSYIKELWEDSGIQECYDRRREYQLTDSAKYYLSDLRRLAVPDYLPTEQDILRVRVPTTGIIEYPFDLEQIIFRMVDVGGQRSERRKWIHCFENVTSIMFLVALSEYDQVLVECDNENRMEESKALFRTIITYPWFTNSSVILFLNKKDLLEEKILYSHLADYFPEYDGPPRDPIAAREFILKMFVDLNPDADKIIYSHFTCATDTENIRRVFNDCRDIIQRMHLRQYELL",–,9433,3120,206,1731,3385,3513,1009,–
"dGαq/z5: D. melanogaster Gαq chimera containing the five C-terminal amino acids of human Gαz (SEQ ID NO: 41) (protein, Drosophila melanogaster) MECCLSEEAKEQKRINQEIEKQLRRDKRDARRELKLLLLGTGESGKSTFIKQMRIIHGSGYSDEDKRGYIKLVFQNIFMAMQSMIKAMDMLKISYGQGEHSELADLVMSIDYETVTTFEDPYLNAIKTLWDDAGIQECYDRRREYQLTDSAKYYLKDLDRVAQPAYLPTEQDILRVRVPTTGIIEYPFDLEEIRFRMVDVGGQRSERRKWIHCFENVTSIIFLVALSEYDQILFESDNENRMEESKALFRTIITYPWFQNSSVILFLNKKDLLEEKIMYSHLVDYFPEYDGPQRDAITAREFILRMFVDLNPDSEKIIYSHFTCATDTENIRFVFAAVKDTILQSNLKYIGLC",–,–,–,–,–,–,–,–,2149

# — patent US7067277B1, “Chimeric G proteins and uses thereof” (H. Lundbeck A/S, priority 1999, dated 2006)
